Experimental data as given in publication PMC5643063, “Viral infection upregulates myostatin promoter activity in orange-spotted grouper (Epinephelus coioides)”.

Biological target: T1, MyoD (Epinephelus coioides (orange-spotted …, UniProt D9IV55 1-269))
T1 sequence: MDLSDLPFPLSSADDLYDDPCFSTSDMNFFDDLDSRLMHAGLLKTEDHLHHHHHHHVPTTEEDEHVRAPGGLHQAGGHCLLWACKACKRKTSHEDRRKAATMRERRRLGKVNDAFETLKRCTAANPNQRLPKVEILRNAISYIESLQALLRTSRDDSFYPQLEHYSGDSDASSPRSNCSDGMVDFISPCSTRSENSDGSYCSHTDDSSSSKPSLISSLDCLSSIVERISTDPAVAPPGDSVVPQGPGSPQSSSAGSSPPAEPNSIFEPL
Assay: EMSA; 2 ug MyoD, increasing probe, poly[d(I-C)] 0.1 ng, 5 mM Mg2+; 20 mM HEPES pH 7.9, 50 mM KCl, 5 mM MgCl2, 0.5 mM EDTA, 5 mM DTT, 5% glycerol, 0.1 ng poly[d(I-C)], 30 min room temperature; 6.5% native PAGE 0.5X TBE
Details: protein: recombinant; tags: C-terminal pET-29a His tag likely (NdeI/XhoI primers, no stop codon); chain copies: 2; label: Cy3; blunt

B1: E-box E6 probe (E6F/E6R) (dsDNA)
DNA 1: CTGTATGTGGATCATTTGTGTCTTTGGTGG
DNA 2: CCACCAAAGACACAAATGATCCACATACAG
Does B1 bind?
Result: binds
